Data on 13 sequences can be found in the DeepSol protein solubility set.

The series is described as follows: soluble on expression in E. coli; label from the status in PepcDB or PDB records.
In the case of “MSLTKYIFVTGGVVSSIGKGIVAASLGRLLKNRGLKVTIQKFDPYINVDPGTMSPYQHGEVFVTDDGAETDLDLGHYERFIDINLNKYSNVTTGKIYSEVLRKERKGEYLGATVQVIPHITNEIKEKIMRAAKMTDADVIITEVGGTVGDIESLPFLEALRQMKADMGSDNVMYIHTTLIPYLKAAGEMKTKPTQHSVKELRSLGIQPNILVVRTELPVSQNTKNKLAQFCDVNPEAVIESRDVETLYSIPLALQAQNMDQIVCDHLKLDAPAADMTEWRALEEKVLNLKKKTKIALVGKYVELPDAYISVVEALKHAGFDFDSDIEIDWVDSQELTAENVAERIGSADGILVPGGFGDRGIEGKIEAIRFARENDVPFLGICLGMQMACVEFGRNVVGLEDAGSAETNPDVTNNIIDLMADQENIENLGGTLRLGLYPCKLKKGTKTAAAYGNEDVVQERHRHRYEFNNKYRQLFEENGLVFSGVSPDNRLVEIVEIPEKQFFVACQFHPELISRPNRPQRLIKGFVGAALANKEKGHHHHHH”, the “soluble on expression in E. coli” value is given as “soluble”. For “MSLANDDLQQRLDKGMYGTPLVNPEEQHKYMGTFRERCRLSMTVAEMKDAQNQKHLLEELAKHPEVTVLLNGEISSDLQSTYIKLLNQHGANFKIVNNFVENNPDSLGLLLAEKHAVDEPVIDVTEKYPQATETPKEEPTAKKSFWQKLFHSEGHHHHHH” the value was “soluble”; for “MSVIQNIIGRIAVLRGGKYSVEVDVATDEGFGRFTSPIDDNPMLHIAEARRAVSEVDEIIGPELIGFDASEQELIDSYLWEIDGTEDFSHIGANTALAVSTAIAKAAANSRDMPLYSYIGGTFATELPVPVLSFAQDDMFDYYLVVKDLLEVTDIIDATNKIREIVKEINLENLSKASEDVGVELGLEVALGIGMKKEMDIEKVLNLVEDYNVAYIKPIGPPELFLELIAGTHGVFIDGEYLFRTNSVLDRRYYNALSIKPINLGTLTDLYNFVNDVKAEKITPILAEAKYEPADETFPHIALGLRCPAMLISWSSIEKINELNRIAEELGERGRIITFEE”, “soluble”. For “MGSDKIHHHHHHADPFASITHLVDSAMVNKTDSIDREKTSDEPKPIEADESFDDFIYNFASDDALQRQRVVFPLPYYNGERASKIDRKYWKHDDLFAKQSYYTLLFDREEDMDLVGDTSLTSVQVEWIFVKKRMVKKYYFERIKGAWMLEAINLRPIEENENEDFVEFFGHFATDSIFQSRRIRQPLVFVTTDPDDDFSILETTLDLNQWFAFKPALPADKLSNINYGQQNDDNASHKILALKGIGNGFSNILYFQRKDSGWELYKFEDTSI” the value was “not soluble”; for “MNMIDKIGVHDVPPGESLQPPRIPYTPIFSNKRLSKHMSRFLIYFLPFFIYSGNVLSKTSCLMATGVLKCPTDPEAVKKVHIDLWDEDSLPLESDDLMGRTWSDRNGNFQVTGCASDFGPINTPDPYLYIQHNCPHRDSNATNPIQVYLKVLENASF”, “not soluble”. For “VTSGTALPSADDLLVLLAVGRTGRFNTAADDLGVNHTTISRRIASLEKSLGGRVLVKAAGGWELTDLGRQALTAAERVEAAVHGLVAEPGRADHLKGVVRVSATDGFSAYIAAPAGALIRSRHPEVSVEIVAITRRASQHRSGLDIEIVVGKPQVHRAEALWLADYTLGLYGAKSYLSAHGTPRQVGDLADHSLVYFIDSMLQVDELDLARRLTVSMRESVTSTNVFVHVEATRASAGIGLLPCFMADRHDDLVRVLPGQVEATLAYWLVARPESLRRPEVAAVVGAIRETVESQRDALAGQ” the value was “not soluble”.

In the case of “GMSRTNINFNNKRTELANKIWDIFIANGYENTTLAFIINKLGISKGALYHYFSSKEECADAAIENRVAFFSNEVLKESEEGLNSIERLKKILLAGIKITSVNEQVKEINSPSNKIFHQKLMVAIIKYFAPIYADIISQGNEEGVFKVKYPLETAEIILTLSHFYLDEDLFKWKKEDMSLKLTAFKETLIKILDADEDTFDFIK”, the “soluble on expression in E. coli” value is “soluble”.

As for “MPNVKDITRESWILSTFPEWGTWLNEEIEEEVVAEGNFAMWWLGNCGVWIKTPGGANVVMDLWSNRGKSTKKVKDMVRGHQMANMAGVRKLQPNLRAQPMVIDPFAINELDYYLVSHFHSDHIDINTAAAIINNPNLDHVKFVGPYECGEIWKKWGVPEERIIVIKPGESFEFKDIKVTAVESFDRTCLVTLPVDGAEEHDGELAGLAVTDEEMARKAVNYIFETPGGTIYHGADSHFSNYFAKHGKDYKIDVAINNYGDNPVGIQDKMTSIDLLRMAENLRAKVIIPVHYDIWSNFMASTDEILQLWKMRKERLQYDFHPFIWEVGGKYTYPQDKDRIEYHHPRGFDDCFEQESNIQFKALLMAGDPLEHHHHHH”, the “soluble on expression in E. coli” value was “soluble”. Take “MPDEAVDGSTPDQGKKNNNGRGRGQGSGGNRGRGGSTANNNASRRPNPARQNQSSRQPTKVDMKKYERMISAAHTNFSDIPCGQKSIDCDICCKKNDVFGIGSCRHPVCAECVIRMRILGNSKTCPVCRSDIDILSFCTTDDDLANVPLSFKKTAHPDEDRYDIRFSNKIAGTKYEKYLAHVCKICKTDDGERLEFPSFMSLRQHMASRHEQSYCHICTDNLNLFSRERKTYTRDQLQRHMRSGDFDDKSFKGHPQCLFCEQKFLDEENRYRHLRKDHFFCQFCESDGTMTNVFFGKHDGLKKHYKEHHYICETEECREMGIAFANKFELDLHRANEHAERRNLIELGFGQRPSDPGRPIGRGRGLRSNEPPPPPVPRERIAVVQRQVETNPQSDPSQFTTVRSAQSKGVFTSTRSAYTSNQQEFPSLAPQAPPPNVRSSEFPRLNKANKPAAPAAPAVVDHFPSLGDSSSSSSAPPLRIKVPPLVKKRQPPPPAPAPQKAKASSARQNAPREEDDEYISRRDVPQAVVKVNNSLLRFDTVDDRVIPQNAKSNIQMIQRVDQKSAAESSSSAPSSGRLDFPALPAASAPMMPANSSWLNSKNSKIKSGVISSVSVPANYSKATQNKNKKKNKISVPKTEVWSSLGPPPDSAVASVPVETWQDIPLSKEAQLEKEKRERKEDWARKKAEIQARVAAASKDKSNEVDSDSEPEPARPITPPVHHSNIEKSESSEWTMANSKSGDSLKNAQLMANQKKNKKNKNNMEIPSANKVPSSQSSIVPSAPKVDSLIVEKVVAKTEPKNDENQDKPDLWNMPKLPSMTSMFSSFSLSGMFGMGTSYSDSSSMAAPPPGLENVVLTPPPGLGFPSPKSDDISFASAPILSHDDVKAKRERLEAEKQKNQKEAEKEDDGWVTTSKPKNNKKNNKK”: the “soluble on expression in E. coli” value was “not soluble”. The result for “STEESMYTQIIKELPREGSSDVLVIKNEHVKKSDIWPSGGEMVVKDLTVKYMDDGNAVLENISFSISPGQRVGLLGRTGSGKSTLLSAFLRMLNIKGDIEIDGVSWNSVTLQEWRKAFGVITQKVFIFSGTFRQNLDPNGKWKDEEIWKVADEVGLKSVIEQFPGQLNFTLVDGGYVLSHGHKQLMCLARSVLSKAKIILLDQPSAHLDPITYQVIRRVLKQAFAGCTVILCEHRIEAMLDCQRFLVIEESNVWQYDSLQALLSEKSIFQQAISSSEKMRFFQGRHSSKHKPRTQITALKEETEEEVQETRL” reads “not soluble”; that for “MNKDLRPIIWNDSEKKLVLIDQRKLPNELVYFECKNYKDVCFAIKDMVVRGAPAIGVAAAYGMALAELNGEDMEKAYLELKKTRPTAVNLFWALEKIIAAKNSGKSLLDEAKLIHEEDIELCRKIGEIGEVLIDDFDTILTHCNAGALATSAYGTALSVIRFAHYNGKKINVLSDETRPRLQGAKLTCFELNYENIPVKAICDNTAGFMMSKGLVDKIIVGADRILSDYHVFNKIGTYSLAILAKYHNIPFYVAAPYSTFDFESKLEDIVIEERSESEVTHIDNVRIVAEGVSAYNFAFDCTPPELITGIITEKEIIYPNKLEHHHHHH”, “not soluble”; that for “QVQLQQSGTELVKSGASVKLSCTASGFNIKDTHMNWVKQRPEQGLEWIGRIDPANGNIQYDPKFRGKATITADTSSNTAYLQLSLTSEDTAVYYCATKVIYYQGRGAMDYWGQGTTLTVS”, “soluble”. The result for “MSLIYPEKNREVLVQLMNQSKNASLIQAWIDDGNTTIAPEKIQVTFILTPPVSRVAGGSGQQLKIRKMPNNLPHNKESLFYLNVLDIPPNNPQNAGKNKIKLALQNRIKLLWRPSGIAPVDKKSLSQLNIKKKNNAISINNETANWITVTTIKAQNVKVNNESILLPPFSHNDITLKNNHASEYELTVVDDYGNNIHSKIAAREGHHHHHH” reads “not soluble”.
